The record followed here is paper PMC8616066.

Assay [1] has as its target eGFP-MUC4β_(ΔEGF2) (human). As to the kind of experiment: MST; Monolith NT.115; native fluorescence of the eGFP fusion proteins followed in cell lysate, titration against recombinant HER2-Fc; triplicate with two distinct cell lysates (n = 6).
In assay [2] the target is fluorescent tagged HER2 (human) (UniProt P04626). Nature of the assay: MST; Monolith NT.115; fluorescent tagged HER2, titration of purified GST fusion proteins.

For the substance “recombinant HER2-Fc (from UniProt P04626 23-652) (Fc fusion)”, the Kd (commonly the equilibrium constant for the complex coming apart) in assay [1] was determined as 97 nM. Substance GST-MUC4_(EGF1) (domain or fragment) registered a Kd in assay [2] of 75 nM. Regarding GST-MUC4_(EGF2) (domain or fragment), in assay [2], the equilibrium dissociation constant (Kd) was determined as 242 nM.
